Laboratory results reported in US6310180.

What follows are substances tested on substrate IV, H-Lys-Ala-Arg-Val-Nle-Phe(p-NO2)-Glu-Ala-Nle-NH2 (assay: steady-state kinetics of substrate IV hydrolysis at 22° C., RP HPLC; the filing calls Km the binding affinity).
[Ala^38, SPro^39, Abu^67,95]-HIV-1 PR showed a Km of 8.2 µM.
Work on “[Leu-NHCH2-Thz^38-39, Abu^67,95]-HIV-1 PR” yielded a Km of 11.4 µM.
Work on [SPro^39, Abu^67,95]-HIV-1 PR yielded a Km of 11.9 µM.
recombinant HIV-1 PR gave a Km of 10.1 µM.

These substances were tested against substrate IV, H-Lys-Ala-Arg-Val-Nle-Phe(p-NO2)-Glu-Ala-Nle-NH2 (HIV) (assay: not given).
For “[Ala^38, SPro^39, Abu^67,95]-HIV-1 PR (enzyme)”, the kcat/Km, hydrolysis of substrate IV was 98400 M^-1, S^-1.
For “[Leu-NHCH2-Thz^38-39, Abu^67,95]-HIV-1 PR (enzyme)”, the kcat/Km, hydrolysis of substrate IV was 36300 M^-1, S^-1.
In the case of [SPro^39, Abu^67,95]-HIV-1 PR (enzyme), the kcat/Km, hydrolysis of substrate IV is reported as 119000 M^-1, S^-1.
For recombinant HIV-1 PR (enzyme), the kcat/Km, hydrolysis of substrate IV was 121000 M^-1, S^-1.
